Measurements reported in article PMC4973555, “Engineering Saccharomyces cerevisiae with the deletion of endogenous glucosidases for the production of flavonoid glucosides” (Microbial Cell Factories, 2016).

B1: SbGT34 (Scutellaria baicalensis) (protein)
chain: MGQLHIVLVPMIAHGHMIPMLDMAKLFSSRGVKTTIIATPAFAEPIRKARESGHDIGLTTTKFPPKGSSLPDNIWSLDQVTDDLLPHFFRALELLQEPVEEIMEDLKPNCLVSDMFLPWTTDSAAKFGIPRLLFHGTSLFARCFAEQMSLQKPYKNVSSDSEPFVLRGLPHEVSFVRTQIPGYELQEGGDDAFSKMAKQMRDADKKSYGDVINNFEELESEYVDHYKNVFGKKAWHIGPLSLCNNRAEQKSPIDDHECLAWLNSKKPNSVVYMCFGSMATFTPAQLHETAVGLESSGQDFIWVVRNGGENEDWLPQGFEERIKGKGLMIRGWAPQVMILDHPSTGAFVTHCGWNSTLEGICAGLPMVTWPVFAEQFYNEKLVTEVLKTGVSVGNKKWQRVGEGVGSEAVKEAVERVMVGDGAAEMRSRAIYYKEMARKAVEEGGSSYNNLNALIEELSAYVPPMKQGLN
notes: full-length cDNA in pTWIN1B; E. coli BL21 (DE3)
B2: SbGT30 (Scutellaria baicalensis) (protein)
chain: MGQLHIVLVPMIAHGHMIPMLDMAKLFSSRGVRTTIIATPAFAEPIRKARESGHDIGLTTTKFPPKGSSLPDNILSLDQVTHDLLPHFFRALELLQEPVEEIMEDLKPNCLVSDMFLPWTTDSAAKFGIPRLLFHGTSLFARCFAEQMSLQKPYKNVSSDSEPFVLRGLPHEVSFVRTQIPGYELQEGGDDAFSKMAKQMRDADKKSYGDVINSFEELESEYVDHYKNVFGKKAWHIGPLSLCNNRAEQKSPIDDHECLAWLNSKKPNSVVYMCFGSMATFSPAQLHETAVGLESSGQDFIWVVRNGGENEDWLPQGFEERIKGKGLMIRGWAPQVVILDHPSTGAFVTHCGWNSTLEGICAGLPMVTWPVFAEQFYNEKLVTEVLKTGVSVGNKKWQRVGEWVGSEAVKEAVEWVMVGDGAAEMRSRANYYKEMARKAVEDGGSSYNNLNALIQELSAYVPPMKQGLN
notes: as for B1
B3: SbGT56 (Scutellaria baicalensis) (protein)
chain: MGQLHIVLVPMIAHGHMIPMLDMAKLFSSRGVKTTIIATPAFAEPIRKARESGHDIGLTTTKFPPKGSSLPDNIRSLDQVTGDLLPHFFRALELLQEPVEEIMEDLKPNCLVSDMFLPWTTDSAAKFGIPRLVFHGTSLFARCFSEQMSIQKPYKNVSSDSEPFVLRGLPHEVSFVRTQIPDYELQEGGDDAFSKMAKQMRDADKKSYGDVINSFEELESEYADYNKNVFGKKAWHIGPLKLFNNRAEQKSSQRGKESAIDDHECLAWLNSKKPNSVVYMCFGSMATFTPAQLHETAVGLESSGQDFIWVVRNGGKNEDWLPQGFEERIKGKGLMIRGWAPQVMILDHPSTGAFVTHCGWNSTLEGICAGLPMVTWPVFAEQFYNEKLVTEVLKTGVSVGNKKWQRVGEGVGSEAVKEAVERVMVGDGAAEMRSRAVYYKEMARKAVEEGGSSYNNLNALIQELSAYVPPMKQGLN
notes: as for B1

substrate: O=c1cc(-c2ccc(O)cc2)oc2cc(O)c(O)c(O)c12; assay: HPLC glucosyltransferase assay, Lineweaver-Burk plot; format: biochemical, Scutellaria baicalensis; conditions: 2 mM UDP-glucose (saturating), 50 mM Tris-HCl pH 7.5, 30 °C

For B1, which Km is on record?
Its Km is 121 µM.

For B2, which Km is on record?
Its Km is 188 µM.

With B3 as the protein, how does the Km read?
Its Km is 222 µM.
